The results in this text go back to IntAct's records for PubMed 22270917.

For this test, the target named is fak1_human PTK2 (UniProt Q05397).
Sequence of fak1_human PTK2 (Q05397 whole entry, looked up): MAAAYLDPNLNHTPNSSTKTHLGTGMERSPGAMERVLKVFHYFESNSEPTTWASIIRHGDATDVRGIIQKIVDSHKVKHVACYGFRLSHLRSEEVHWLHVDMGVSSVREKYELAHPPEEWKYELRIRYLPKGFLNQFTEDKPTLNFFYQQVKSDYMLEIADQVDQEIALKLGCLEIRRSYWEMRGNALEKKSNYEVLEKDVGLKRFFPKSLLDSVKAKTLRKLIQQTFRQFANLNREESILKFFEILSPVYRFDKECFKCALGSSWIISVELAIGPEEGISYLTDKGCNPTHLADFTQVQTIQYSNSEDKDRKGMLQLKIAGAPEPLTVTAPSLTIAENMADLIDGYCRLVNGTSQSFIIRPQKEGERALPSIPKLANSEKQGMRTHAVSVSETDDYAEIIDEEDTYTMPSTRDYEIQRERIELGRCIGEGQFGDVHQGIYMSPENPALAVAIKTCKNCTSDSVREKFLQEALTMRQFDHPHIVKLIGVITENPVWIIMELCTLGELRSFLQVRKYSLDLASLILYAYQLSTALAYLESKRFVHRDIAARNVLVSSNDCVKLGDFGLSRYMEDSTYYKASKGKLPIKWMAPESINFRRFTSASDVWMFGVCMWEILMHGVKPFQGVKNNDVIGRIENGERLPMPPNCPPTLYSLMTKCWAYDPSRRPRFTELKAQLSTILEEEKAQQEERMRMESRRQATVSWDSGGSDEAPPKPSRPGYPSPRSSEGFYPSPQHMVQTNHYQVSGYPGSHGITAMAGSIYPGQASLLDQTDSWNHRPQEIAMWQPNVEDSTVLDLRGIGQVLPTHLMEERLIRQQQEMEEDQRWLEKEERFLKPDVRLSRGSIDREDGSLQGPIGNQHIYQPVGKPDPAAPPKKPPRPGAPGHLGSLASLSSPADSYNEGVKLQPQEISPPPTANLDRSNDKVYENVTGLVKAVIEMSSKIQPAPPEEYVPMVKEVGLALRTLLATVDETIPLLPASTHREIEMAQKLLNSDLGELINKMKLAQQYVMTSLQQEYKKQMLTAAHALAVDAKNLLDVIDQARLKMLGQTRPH

Regarding “Talin-1 (Gallus gallus (Chicken)), P54939 A360E”, the “effect of a mutation on the interaction” value is reported as “disrupting interaction”.
The same measure for “Talin-1 (Gallus gallus (Chicken)), P54939 W359A”: “disrupting interaction”.
